Measurements: IntAct's records for PubMed 29039417

B1: BBSome complex member BBS2 (Homo sapiens), Q9BXC9 (parent)
chain: MLLPVFTLKLRHKISPRMVAIGRYDGTHPCLAAATQTGKVFIHNPHTRNQHVSASRVFQSPLESDVSLLSINQAVSCLTAGVLNPELGYDALLVGTQTNLLAYDVYNNSDLFYREVADGANAIVLGTLGDISSPLAIIGGNCALQGFNHEGSDLFWTVTGDNVNSLALCDFDGDGKKELLVGSEDFDIRVFKEDEIVAEMTETEIVTSLCPMYGSRFGYALSNGTVGVYDKTSRYWRIKSKNHAMSIHAFDLNSDGVNELITGWSNGKVDARSDRTGEVIFKDNFSSAIAGVVEGDYRMDGHIQLICCSVDGEIRGYLPGTAEMRGNLMDTSAEQDLIRELSQKKQNLLLELRNYEENAKAELASPLNEADGHRGIIPANTRLHTTLSVSLGNETQTAHTELRISTSNDTIIRAVLIFAEGIFTGESHVVHPSIHNLSSSICIPIVPPKDVPVDLHLKAFVGYRSSTQFHVFESTRQLPRFSMYALTSLDPASEPISYVNFTIAERAQRVVVWLGQNFLLPEDTHIQNAPFQVCFTSLRNGGHLHIKIKLSGEITINTDDIDLAGDIIQSMASFFAIEDLQVEADFPVYFEELRKVLVKVDEYHSVHQKLSADMADHSNLIRSLLVGAEDARLMRDMKTMKSRYMELYDLNRDLLNGYKIRCNNHTELLGNLKAVNQAIQRAGRLRVGKPKNQVITACRDAIRSNNINTLFKIMRVGTASS
partner: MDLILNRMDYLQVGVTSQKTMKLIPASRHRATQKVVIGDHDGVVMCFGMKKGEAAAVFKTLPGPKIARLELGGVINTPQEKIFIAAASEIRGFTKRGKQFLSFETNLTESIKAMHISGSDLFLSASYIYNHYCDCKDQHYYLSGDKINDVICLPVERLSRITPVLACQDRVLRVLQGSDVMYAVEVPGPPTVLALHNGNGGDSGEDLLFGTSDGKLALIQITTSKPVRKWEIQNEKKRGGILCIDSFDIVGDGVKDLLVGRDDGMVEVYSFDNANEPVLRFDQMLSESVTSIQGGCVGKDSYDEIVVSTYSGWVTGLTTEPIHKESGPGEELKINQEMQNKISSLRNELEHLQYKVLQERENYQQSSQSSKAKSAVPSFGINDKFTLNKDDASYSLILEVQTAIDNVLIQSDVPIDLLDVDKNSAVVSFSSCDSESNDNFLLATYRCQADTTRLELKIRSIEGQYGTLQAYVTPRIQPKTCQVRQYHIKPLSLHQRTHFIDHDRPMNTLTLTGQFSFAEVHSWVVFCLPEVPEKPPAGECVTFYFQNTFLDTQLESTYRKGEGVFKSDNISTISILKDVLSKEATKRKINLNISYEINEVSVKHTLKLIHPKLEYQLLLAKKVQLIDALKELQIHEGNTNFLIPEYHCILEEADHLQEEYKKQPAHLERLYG
B2: BBSome complex member BBS1 (Homo sapiens), Q8NFJ9 (parent)
chain: MAAASSSDSDACGAESNEANSKWLDAHYDPMANIHTFSACLALADLHGDGEYKLVVGDLGPGGQQPRLKVLKGPLVMTESPLPALPAAAATFLMEQHEPRTPALALASGPCVYVYKNLRPYFKFSLPQLPPNPLEQDLWNQAKEDRIDPLTLKEMLESIRETAEEPLSIQSLRFLQLELSEMEAFVNQHKSNSIKRQTVITTMTTLKKNLADEDAVSCLVLGTENKELLVLDPEAFTILAKMSLPSVPVFLEVSGQFDVEFRLAAACRNGNIYILRRDSKHPKYCIELSAQPVGLIRVHKVLVVGSTQDSLHGFTHKGKKLWTVQMPAAILTMNLLEQHSRGLQAVMAGLANGEVRIYRDKALLNVIHTPDAVTSLCFGRYGREDNTLIMTTRGGGLIIKILKRTAVFVEGGSEVGPPPAQAMKLNVPRKTRLYVDQTLREREAGTAMHRAFQTDLYLLRLRAARAYLQALESSLSPLSTTAREPLKLHAVVQGLGPTFKLTLHLQNTSTTRPVLGLLVCFLYNEALYSLPRAFFKVPLLVPGLNYPLETFVESLSNKGISDIIKVLVLREGQSAPLLSAHVNMPGSEGLAAA
partner: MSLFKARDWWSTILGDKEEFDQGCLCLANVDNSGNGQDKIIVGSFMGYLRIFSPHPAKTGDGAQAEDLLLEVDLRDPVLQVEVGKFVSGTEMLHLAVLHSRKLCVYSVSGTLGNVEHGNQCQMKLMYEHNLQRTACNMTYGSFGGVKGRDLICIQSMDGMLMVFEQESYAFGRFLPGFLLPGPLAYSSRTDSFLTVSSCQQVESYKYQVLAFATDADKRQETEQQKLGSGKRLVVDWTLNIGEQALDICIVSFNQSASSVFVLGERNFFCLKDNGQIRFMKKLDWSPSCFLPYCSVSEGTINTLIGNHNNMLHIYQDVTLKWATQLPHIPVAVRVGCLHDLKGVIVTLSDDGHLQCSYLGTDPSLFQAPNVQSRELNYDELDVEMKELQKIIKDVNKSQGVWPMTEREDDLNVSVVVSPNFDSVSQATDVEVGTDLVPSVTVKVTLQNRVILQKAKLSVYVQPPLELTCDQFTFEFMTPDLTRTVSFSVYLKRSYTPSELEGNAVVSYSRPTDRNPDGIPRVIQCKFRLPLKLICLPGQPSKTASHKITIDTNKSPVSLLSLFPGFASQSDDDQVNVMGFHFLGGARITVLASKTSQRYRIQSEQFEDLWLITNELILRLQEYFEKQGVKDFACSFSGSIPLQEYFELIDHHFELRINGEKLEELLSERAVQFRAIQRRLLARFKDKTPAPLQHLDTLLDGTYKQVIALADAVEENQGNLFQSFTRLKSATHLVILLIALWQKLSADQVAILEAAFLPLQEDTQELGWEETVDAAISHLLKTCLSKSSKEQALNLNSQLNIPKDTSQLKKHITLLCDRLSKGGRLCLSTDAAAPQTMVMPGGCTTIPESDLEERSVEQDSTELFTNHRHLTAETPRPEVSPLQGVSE

Variants of: B1
Conditions: with BBS7, Q8IWZ6-2

Row | effect of a mutation on the interaction | Variant
1 | with no effect | I338A
2 | with no effect | I338K
3 | with no effect | I338E
4 | with no effect | L341A
5 | with no effect | L341K
6 | with no effect | L341E
7 | with no effect | L350K
8 | with no effect | L350E
9 | with no effect | L350A
10 | with no effect | Q346K
11 | with no effect | Q346A
12 | with no effect | Q346E
13 | with no effect | Y355A
14 | with no effect | Y355E
15 | with no effect | Y355K
16 | with no effect | L348E
17 | with no effect | L348A
18 | with no effect | L348K
19 | with no effect | N327A
20 | with no effect | N327K
21 | with no effect | N327E
22 | with no effect | S332E
23 | with no effect | S332K

Row | effect of a mutation on the interaction | Variant
24 | with no effect | S332A
25 | with no effect | K345A
26 | with no effect | K345E
27 | with no effect | L337E
28 | with no effect | L337A
29 | with no effect | L337K
30 | with no effect | A333K
31 | with no effect | A333E
32 | with no effect | N347E
33 | with no effect | N347A
34 | with no effect | N347K
35 | with no effect | M329A
36 | with no effect | M329K
37 | with no effect | M329E
38 | with no effect | R325K
39 | with no effect | R325A
40 | with no effect | R325E
41 | with no effect | E340A
42 | with no effect | E340K
43 | with no effect | T331K
44 | with no effect | T331E
45 | with no effect | T331A
46 | with no effect | S342K

Row | effect of a mutation on the interaction | Variant
47 | with no effect | S342E
48 | with no effect | S342A
49 | with no effect | L352E
50 | with no effect | L352K
51 | with no effect | L352A
52 | with no effect | E356A
53 | with no effect | E356K
54 | with no effect | L349E
55 | with no effect | L349A
56 | with no effect | L349K
57 | with no effect | N354A
58 | with no effect | N354K
59 | with no effect | N354E
60 | with no effect | D330E
61 | with no effect | D330K
62 | with no effect | D330A
63 | with no effect | D336E
64 | with no effect | D336A
65 | with no effect | D336K
66 | with no effect | K344A
67 | with no effect | K344E
68 | with no effect | L328E
69 | with no effect | L328K

Row | effect of a mutation on the interaction | Variant
70 | with no effect | L328A
71 | with no effect | E334K
72 | with no effect | E334A
73 | with no effect | G326E
74 | with no effect | G326K
75 | with no effect | G326A
76 | with no effect | E351K
77 | with no effect | E351A
78 | with no effect | R353A
79 | with no effect | R353K
80 | with no effect | R353E
81 | with no effect | Q343K
82 | with no effect | Q343A
83 | with no effect | Q343E
84 | with no effect | R339E
85 | with no effect | R339K
86 | with no effect | R339A
87 | with no effect | Q335K
88 | with no effect | Q335A
89 | with no effect | Q335E

Variants of: B2
Conditions: with pthb1_human BBS9, Q3SYG4

Row | effect of a mutation on the interaction | Variant
90 | disrupting interaction strength | L503H
91 | with no effect | R512H
92 | with no effect | I564A

Variants of: B2
Conditions: with pthb1_human BBS9, Q3SYG4
Remark: another data set of the same source

Row | Variant | effect of a mutation on the interaction
93 | S561K | with no effect
94 | D562A | with no effect
95 | D562K | with no effect
96 | D562E | with no effect

Next, values leading:

Row | effect of a mutation on the interaction | Variant
97 | with no effect | Q573K
98 | with no effect | Q573A
99 | with no effect | Q573E
100 | with no effect | I563A
101 | with no effect | I563K
102 | with no effect | I563E
103 | with no effect | G589A
104 | with no effect | G589K
105 | with no effect | G589E
106 | with no effect | S587K
107 | with no effect | S587A
108 | with no effect | S587E
109 | with no effect | K565A
110 | with no effect | K565E
111 | with no effect | L590K
112 | with no effect | L590E
113 | with no effect | L590A
114 | with no effect | S579A
115 | with no effect | S579K
116 | with no effect | S579E
117 | with no effect | L577A
118 | with no effect | L577E

Row | effect of a mutation on the interaction | Variant
119 | with no effect | L577K
120 | with no effect | G586A
121 | with no effect | G586K
122 | with no effect | G586E
123 | disrupting interaction strength | G586R
124 | with no effect | L569A
125 | with no effect | L569K
126 | disrupting interaction strength | L569E
127 | with no effect | G572E
128 | with no effect | G572K
129 | with no effect | G572A
130 | with no effect | E588A
131 | with no effect | E588K
132 | with no effect | H581K
133 | with no effect | H581A
134 | with no effect | H581E
135 | with no effect | E571A
136 | with no effect | E571K
137 | with no effect | L567K
138 | with no effect | L567E
139 | with no effect | L567A
140 | with no effect | V582A

Row | effect of a mutation on the interaction | Variant
141 | with no effect | V582K
142 | with no effect | V582E
143 | with no effect | V566A
144 | disrupting interaction strength | V566K
145 | disrupting interaction strength | V566E
146 | with no effect | S574K
147 | with no effect | S574E
148 | with no effect | S574A
149 | with no effect | A575K
150 | with no effect | A575E
151 | with no effect | L578K
152 | with no effect | L578A
153 | with no effect | L578E
154 | with no effect | R570A
155 | with no effect | R570E
156 | with no effect | R570K
157 | with no effect | P585E
158 | with no effect | P585K
159 | with no effect | P585A
160 | with no effect | A591E
161 | with no effect | A591K
162 | disrupting interaction strength | V568A

Row | effect of a mutation on the interaction | Variant
163 | disrupting interaction strength | V568K
164 | disrupting interaction strength | V568E
165 | with no effect | A592E
166 | with no effect | A592K
167 | disrupting interaction strength | P576K
168 | with no effect | P576E
169 | with no effect | P576A
170 | with no effect | N583E
171 | with no effect | N583A
172 | with no effect | N583K
173 | with no effect | A593E
174 | with no effect | A593K
175 | disrupting interaction strength | I564A
176 | disrupting interaction strength | I564K
177 | disrupting interaction strength | I564E
178 | with no effect | A580K
179 | with no effect | A580E
180 | with no effect | M584K
181 | with no effect | M584E
182 | with no effect | M584A
